Data published in patent US20110300138A1 (published 2011).
Like-named read-outs stand apart in the source and are kept apart here.

How the values were obtained:
[1] = target: TSHR260-alkaline phosphatase (TSHR260-AP) (human) (UniProt P05187); experiment: TSHR260-AP bridge ELISA, full length TSHR on wells; 0.5 µg/mL, diluted in HBD
TSHR260-AP (human) [2] = experiment: TSHR260-AP bridge ELISA (full length TSHR on wells, TSHR260-AP in solution); IgG 0.5 µg/mL diluted in HBD serum
[3] = target: TSHR260-alkaline phosphatase (TSHR260-AP) (human) (UniProt P05187); experiment: TSHR260-AP bridge ELISA, full length TSHR on wells; 0.05 µg/mL, diluted in assay buffer
TSHR260-AP (human) [4] = experiment: TSHR260-AP bridge ELISA (full length TSHR on wells, TSHR260-AP in solution); IgG 0.05 µg/mL diluted in assay buffer
[5] = target: human TSH receptor (full length, wild type) expressed in CHO cells (human) (UniProt P16473); experiment: cell-based or functional assay
[6] = target: TSHR260-alkaline phosphatase (TSHR260-AP) (human) (UniProt P05187); experiment: TSHR260-AP bridge ELISA, full length TSHR on wells; 0.5 µg/mL, diluted in assay buffer
[7] = target: TSHR260-alkaline phosphatase (TSHR260-AP) (human) (UniProt P05187); experiment: TSHR260-AP bridge ELISA, full length TSHR on wells; 1 µg/mL, diluted in assay buffer
[8] = target: TSHR260-alkaline phosphatase (TSHR260-AP) (human) (UniProt P05187); experiment: TSHR260-AP bridge ELISA, full length TSHR on wells; 0.1 µg/mL, diluted in assay buffer
[9] = target: human TSH receptor (TSHR), wild type, expressed in CHO cells (human) (UniProt P16473); experiment: cell-based or functional assay
TSHR260-AP (human) [10] = experiment: TSHR260-AP bridge ELISA (full length TSHR on wells, TSHR260-AP in solution); IgG 1 µg/mL diluted in HBD serum
[11] = target: TSHR260-alkaline phosphatase (TSHR260-AP) (human) (UniProt P05187); experiment: TSHR260-AP bridge ELISA, full length TSHR on wells; 0.01 µg/mL, diluted in HBD
TSHR260-AP (human) [12] = experiment: TSHR260-AP bridge ELISA (full length TSHR on wells, TSHR260-AP in solution); IgG 10 µg/mL diluted in HBD serum
TSHR260-AP (human) [13] = experiment: TSHR260-AP bridge ELISA (full length TSHR on wells, TSHR260-AP in solution); IgG 0.5 µg/mL diluted in assay buffer
[14] = target: TSHR260-alkaline phosphatase (TSHR260-AP) (human) (UniProt P05187); experiment: TSHR260-AP bridge ELISA, full length TSHR on wells; 10 µg/mL, diluted in HBD
[15] = target: TSHR260-alkaline phosphatase (TSHR260-AP) (human) (UniProt P05187); experiment: TSHR260-AP bridge ELISA, full length TSHR on wells; 250 µg/mL, diluted in assay buffer
TSHR260-AP (human) [16] = experiment: TSHR260-AP bridge ELISA (full length TSHR on wells, TSHR260-AP in solution); IgG 250 µg/mL diluted in HBD serum
[17] = target: human TSHR (wild type, full length) expressed in CHO cells (human) (UniProt P16473); experiment: cell-based or functional assay
[18] = target: TSHR260-alkaline phosphatase (TSHR260-AP) (human) (UniProt P05187); experiment: TSHR260-AP bridge ELISA, full length TSHR on wells; 1 µg/mL, diluted in HBD
[19] = target: human TSH receptor (full length, wild type) expressed in CHO cells (human) (UniProt P16473); experiment: cell-based or functional assay; remark: listed apart in the source
TSHR260-AP (human) [20] = experiment: TSHR260-AP bridge ELISA (full length TSHR on wells, TSHR260-AP in solution); IgG 0.05 µg/mL diluted in HBD serum
TSHR260-AP (human) [21] = experiment: TSHR260-AP bridge ELISA (full length TSHR on wells, TSHR260-AP in solution); IgG 0.1 µg/mL diluted in assay buffer
[22] = target: TSHR260-alkaline phosphatase (TSHR260-AP) (human) (UniProt P05187); experiment: TSHR260-AP bridge ELISA, full length TSHR on wells; 0.05 µg/mL, diluted in HBD
[23] = target: TSHR260-alkaline phosphatase (TSHR260-AP) (human) (UniProt P05187); experiment: TSHR260-AP bridge ELISA, full length TSHR on wells; 100 µg/mL, diluted in HBD
[24] = target: TSHR260-alkaline phosphatase (TSHR260-AP) (human) (UniProt P05187); experiment: TSHR260-AP bridge ELISA, full length TSHR on wells; 10 µg/mL, diluted in assay buffer

B1: 5C9 IgG (antibody, from another filing, V domains shown)
VH: EVQLVESGGGLIQPGGSLRLSCAASGFTVSSNYMSWVRQAPGKGLEWVSVTYSGGSTSYADSVKGRFTISRDNSKNTLYLQMNSLRAEDTAVYYCARGGRYCSSISCYARSGCDYWGQGTLVTVSS
VL: AIQMTQSPSSLSASVGDRVTITCRASQSISNYLNWYQQKPGKAPKLLIYAASSLQSGVPSRFSGSGSGTDFTLTISSLQPEDFATYYCQQSYSSPSTTFGQGTKLEIK
Q: B1 was tested. Which Mean absorbance at 405 nm (absorbance at 405 nm) [1] did it give?
A: 0.016

Q: What about the Mean absorbance at 405 nm (absorbance at 405 nm) (TSHR260-AP (human) [2]) of the same binder?
A: 0.016

Q: And the Mean absorbance at 405 nm (absorbance at 405 nm) [3]?
A: -0.008

Q: What about the Mean absorbance at 405 nm (absorbance at 405 nm) (TSHR260-AP (human) [4]) of the same binder?
A: -0.008

Q: And the % Inhibition; T10 serum + 100 µg/mL 5C9 IgG [5]?
A: 98.4%

Q: What about the % Inhibition; T11 serum + 100 µg/mL 5C9 IgG [5] of the same binder?
A: 8.5%

Q: And the % Inhibition; T12 serum + 100 µg/mL 5C9 IgG [5]?
A: 96.3%

Q: And the Cyclic AMP concentration; 100 µg/mL 5C9 IgG alone [5]?
A: 0.9 pmol/mL

Q: And the Cyclic AMP concentration; HBD + 100 µg/mL 5C9 IgG [5]?
A: 1.1 pmol/mL

Q: What about the Cyclic AMP concentration; T10 serum + 100 µg/mL 5C9 IgG [5] of the same binder?
A: 0.9 pmol/mL

Q: And the Cyclic AMP concentration; T11 serum + 100 µg/mL 5C9 IgG [5]?
A: 37.5 pmol/mL

Q: What about the Cyclic AMP concentration; T12 serum + 100 µg/mL 5C9 IgG [5] of the same binder?
A: 1.6 pmol/mL

Q: And the Mean absorbance at 405 nm (absorbance at 405 nm) [6]?
A: -0.005

Q: What about the Mean absorbance at 405 nm (absorbance at 405 nm) [7] of the same binder?
A: 0.011

Q: What about the Mean absorbance at 405 nm (absorbance at 405 nm) [8] of the same binder?
A: -0.013

Q: What about the % Inhibition of constitutive activity; 0.001 µg/mL 5C9 IgG [9] of the same binder?
A: 0%

Q: What about the % Inhibition of constitutive activity; 0.01 µg/mL 5C9 IgG [9] of the same binder?
A: 1%

Q: And the % Inhibition of constitutive activity; 0.1 µg/mL 5C9 IgG [9]?
A: 13%

Q: What about the % Inhibition of constitutive activity; 0.3 µg/mL 5C9 IgG [9] of the same binder?
A: 50%

Q: What about the % Inhibition of constitutive activity; 1 µg/mL 5C9 IgG [9] of the same binder?
A: 61%

Q: What about the % Inhibition of constitutive activity; 3 µg/mL 5C9 IgG [9] of the same binder?
A: 63%

Q: What about the % Inhibition of constitutive activity; 10 µg/mL 5C9 IgG [9] of the same binder?
A: 56%

Q: And the % Inhibition of constitutive activity; 100 µg/mL 5C9 IgG [9]?
A: 52%

Q: And the Cyclic AMP concentration (constitutive activity); 0.001 µg/mL 5C9 IgG [9]?
A: 19.1 pmol/mL

Q: What about the Cyclic AMP concentration (constitutive activity); 0.01 µg/mL 5C9 IgG [9] of the same binder?
A: 18.6 pmol/mL

Q: And the Cyclic AMP concentration (constitutive activity); 0.1 µg/mL 5C9 IgG [9]?
A: 16.3 pmol/mL

Q: And the Cyclic AMP concentration (constitutive activity); 0.3 µg/mL 5C9 IgG [9]?
A: 9.3 pmol/mL

Q: And the Cyclic AMP concentration (constitutive activity); 1 µg/mL 5C9 IgG [9]?
A: 7.4 pmol/mL

Q: What about the Cyclic AMP concentration (constitutive activity); 3 µg/mL 5C9 IgG [9] of the same binder?
A: 6.9 pmol/mL

Q: What about the Cyclic AMP concentration (constitutive activity); 10 µg/mL 5C9 IgG [9] of the same binder?
A: 8.3 pmol/mL

Q: And the Cyclic AMP concentration (constitutive activity); 100 µg/mL 5C9 IgG [9]?
A: 9 pmol/mL

Q: What about the Mean absorbance at 405 nm (absorbance at 405 nm) (TSHR260-AP (human) [10]) of the same binder?
A: 0.045

Q: What about the Mean absorbance at 405 nm (absorbance at 405 nm) [11] of the same binder?
A: 0.017

Q: And the Mean absorbance at 405 nm (absorbance at 405 nm) (TSHR260-AP (human) [12])?
A: 0.004

Q: What about the Mean absorbance at 405 nm (absorbance at 405 nm) (TSHR260-AP (human) [13]) of the same binder?
A: -0.005

Q: What about the Mean absorbance at 405 nm (absorbance at 405 nm) [14] of the same binder?
A: 0.004

Q: And the Mean absorbance at 405 nm (absorbance at 405 nm) [15]?
A: 1.12

Q: And the Mean absorbance at 405 nm (absorbance at 405 nm) (TSHR260-AP (human) [16])?
A: 0.058

Q: And the % Inhibition of T8 serum stimulation; 0.01 µg/mL 5C9 IgG [17]?
A: 0%

Q: And the % Inhibition of T8 serum stimulation; 0.1 µg/mL 5C9 IgG [17]?
A: 91%

Q: What about the % Inhibition of T8 serum stimulation; 1 µg/mL 5C9 IgG [17] of the same binder?
A: 96%

Q: And the % Inhibition of T8 serum stimulation; 10 µg/mL 5C9 IgG [17]?
A: 97%

Q: And the % Inhibition of T8 serum stimulation; 100 µg/mL 5C9 IgG [17]?
A: 97%

Q: What about the Cyclic AMP concentration; 0.01 µg/mL 5C9 IgG + T8 [17] of the same binder?
A: 53.7 pmol/mL

Q: And the Cyclic AMP concentration; 0.1 µg/mL 5C9 IgG + T8 [17]?
A: 4.6 pmol/mL

Q: What about the Cyclic AMP concentration; 1 µg/mL 5C9 IgG + T8 [17] of the same binder?
A: 2.2 pmol/mL

Q: What about the Cyclic AMP concentration; 10 µg/mL 5C9 IgG + T8 [17] of the same binder?
A: 1.7 pmol/mL

Q: What about the Cyclic AMP concentration; 100 µg/mL 5C9 IgG + T8 [17] of the same binder?
A: 1.7 pmol/mL

Q: And the Cyclic AMP concentration; 100 µg/mL 5C9 IgG alone [17]?
A: 1.2 pmol/mL

Q: What about the Mean absorbance at 405 nm (absorbance at 405 nm) [18] of the same binder?
A: 0.045

Q: And the % Inhibition; T4 serum + 100 µg/mL 5C9 IgG [19]?
A: 97.6%

Q: What about the % Inhibition; T5 serum + 100 µg/mL 5C9 IgG [19] of the same binder?
A: 98.3%

Q: What about the % Inhibition; T6 serum + 100 µg/mL 5C9 IgG [19] of the same binder?
A: 97.8%

Q: And the Cyclic AMP concentration; 100 µg/mL 5C9 IgG alone [19]?
A: 1.2 pmol/mL

Q: What about the Cyclic AMP concentration; HBD + 100 µg/mL 5C9 IgG [19] of the same binder?
A: 1.8 pmol/mL

Q: And the Cyclic AMP concentration; T4 serum + 100 µg/mL 5C9 IgG [19]?
A: 1.9 pmol/mL

Q: And the Cyclic AMP concentration; T5 serum + 100 µg/mL 5C9 IgG [19]?
A: 1.1 pmol/mL

Q: And the Cyclic AMP concentration; T6 serum + 100 µg/mL 5C9 IgG [19]?
A: 1.8 pmol/mL

Q: What about the Mean absorbance at 405 nm (absorbance at 405 nm) (TSHR260-AP (human) [20]) of the same binder?
A: -0.003

Q: What about the Mean absorbance at 405 nm (absorbance at 405 nm) (TSHR260-AP (human) [21]) of the same binder?
A: -0.013

Q: What about the Mean absorbance at 405 nm (absorbance at 405 nm) [22] of the same binder?
A: -0.003

Q: And the Mean absorbance at 405 nm (absorbance at 405 nm) [23]?
A: 0.027

Q: And the Mean absorbance at 405 nm (absorbance at 405 nm) [24]?
A: 0.099
